This note sets out measurements from the NTF2 design screens of Basanta et al. (2020).

A short description of the series: protease stability score; higher = more stable; yeast display proteolysis, trypsin and chymotrypsin.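 Note: relative to predicted unfolded state with 0 unfolded-like and 1 meaning tenfold more protease.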
The sequence “TEEEDLIRRQIHELRETLQTGDEHLLNWLLDPHARMEIDGQEVWGREEIAKFLHRFKNITVLFNDMIVQGDKVDIDGQIEFNGRRRRARLISDKVDGQWIDHDIIII” registered a protease stability score of 1.3. As for “TEEEDRLREIAELIHKFLTTGDWEKIFRMLDPHVRVEIHVNGRDIIIHGWKNVHRLLEYELEELRFHQSDVHELRVQGDKAHSITEWDGVIDGRRQNLHVNVHFVTVDGRIRSIKFEFR”, the figure is 1.57; as for “TEEEEAAKRVFRLLLENAKTGDEDHLRELIDPNVRIHVDGRTLIGMEQFKRFWSEMRVHHWDQKSVDFVNGRVHSDTIINSHVDGQTIHIDVRIIITKIDGQWVVESFSVS”, 1.17.

“TEEEEAKHLAQRIIEEDLRTGDWSRELRQIDPDVKTRVGDKTFHGMSALHYLLKQIDHPKSFTTHHIEVQGDKIKIDGELEGNINGVRTKIHTIFIVRKVNGRWLVETIIFE” came in with a protease stability score of 1.53. “TEEEEDARRATEELVRIINTGDEDRWERLMDPDVRVEVGDKEIHGRETLSEIFKFKHKHLRIKMDIRDMRLIDGKVWVDIVIDVEFDGRRHIHKTTIVLIKVNGRWRLDEVRLH”: the protease stability score worked out at 1.77. As for “TEEEEDLKEVLRVELETWHTGNWDEMRRLLDPHARLIFDGQTFHGRELAVKFFQELLTRFDVLHIIPQSVSVYNGRVEIHEEMHEVVDGQTIRRTYHVRSSKINGRWSVEVLVIQ”, the figure is 0.443; as for “TEEEEEARRALEEWIHNLMTGDEKRELELADPHVRILIDINGREIHMHGWEQFERWVHEEMRRLGLDRFEVRLEHIEIQGDKSVLDGRINYNGVDERNNIILVVVDGKLRQIRIHVI”, 1.95; as for “TEEEEEFHEILEHFLTQLHTGDWEEIIKNLDPNVLFHFNGVLFHGREEVSRFLVEWFDKIKGMRIHIHELRIVGDKATIDTRLDVGEKTHRVIIHIRKINGRWLITEIRIE”, 2.02. For “TEEEEEFHRMFELEVRAWRTGDEETIRRLFDPHARIDFNGRDVIGRDEFIKRFQELGVEVHDLKIHNFRIVGDKVHWDIRLDGTFNGKRTKLEIHLYAEKYDGQWFNKTEYYI”, the protease stability score came to 1.36. Sequence “TEEEEEFKRTSHEIFYALHTGNWEILEKMFDPHVRTHINGKDVHGREEATRVMELWIEELGVKHIHIKSEHHDIQGEFVRIHFHIISRVGDKFIEIEIEMEIRKINGRWRFTSIRLDRR” showed a protease stability score of 1.42. For “TEEEEELHKILERMIKHLVTGDEEAILKLADPDVRVHRIIDGRELDIVGRENLRHWLHELLRQLGVDHIDVKSVTLQGDKIHMTGTMKWNGKTEETRIIFEVVNGRLKRMEFHEI” the value was 0.982.

With “TEEEEELRRIEHLTIELIETGDEDTLKRLADPNARLNIEFNGVHIHSHGREEMARLLHEWYRTMGIKHEELKRSEIQGDKVILHTELRIGDKTVSTIIITLVINGRIKWIRIIIK”, the protease stability score is 1.36. “TEEEEEMRELTELWLNILHTGDEDRFRELADPRVRLHINGRHNHGREIFMEFFDRSLKILGADHRTIHRIRFIGDKIDIKGREYINGQETRATLHVIIVNGRIKFEEWRFD”: the protease stability score is 0.989.

Sequence “TEEEEEMRKMSELYIRAILTGDEDEYTKLADPDDRVNFNGRKLVGRKEVKEWLRKLRDKFKNITLHHFEIKELRVYNGRIRMIAESEVNIGDKVWRFHLHFIFEKFDGVWVLTEESTE” gave a protease stability score of 1.64.

Take “TEEEEENMDFLHKWLERTRTGDEHEIKKLADPDVRLRVGNKEIHGRDLFARWAKEIRITHLDEKRFHIYNGKVDFDGINHVTVNGVDETRKVIFHLVKVDGVWRFKEVDIR”: the protease stability score came to 0.98. As for “TEEEEESKKAVEDLLHTIKTGNEEHMDRLLDPNVRLHVGDKDFVGREAFRHFWHEEWERFKNIKVELEDVKIFNGRVQIVLRIDIGDKHHRLHVYADKINGRWFIKRVEIE”, the figure is 2. For “TEEEEHALTLMKEWVHNHETGNEDHLSHLMDPNYRWVQGDWHLHGMEDFSRELNKTLDKMGMTEHLRLKDFKVQGNFVEVIGTQHLHINGRTIKIDSTLKLNVINGRIHEVRYTLH” the value was 0.77; for “TEEEEHASRIARLWLDMLLTGDWHTLDRLLDPHVRLEVNGQERIGREQIIKFEEERKRQLRINDVRTRHIHSQGDKLHIVTEADGEIDGKRTNVDTRIQIKVVDGVVEEVKFDIK”, 0.736.

As for “TEEEEHIRRLAEELMHNIRTGDEDTLVDLFDPDTKLHVHQGDKEIVFHGMEEIFDWWEKLLSEIRIEIRIRSIKYIGDKAHVHTEVIWRFNGREHRIESEIEFVLINGKVERIHISFI”, the protease stability score came out at 2.27. The sequence “TEEEEHLHTLASKDLKAFMTGDWETHKKLADPHVRFELVVGEWRLILHGRERFIEFLIEVLEKMGVDHFHLQHVEVIGNFVRLNIKIEVGDKTHDTRIDLEYINGVIHDVRVEFK” gave a protease stability score of 2.02. Regarding “TEEEEHSKTLAEELLRVLLTGDEDTLHELFDPHARFHYGDKLHIGREEVTKALREVYERIDHYEVKHLEIQGDKVHVDGEHHIGDKSIRVRVHAWIVNGVVKQYHEHSL”, the protease stability score came to 1.02. For “TEEEEHTDMVRRIWVEIAKTGDERSWEKYFDPNARMHIFFNGQEIELHGRETITKWLHETLTRIKGLRMEIEHFENIGDKVHMDTRFIIGDKERKSEVEIIVVDGRLKSVTIRHR” the value was 1.78; for “TEEEEHWKHLVELWLRAVETGDEHLLHRLLDPHVKIDYNGKELHGRETHIKIERHFRERYKGLRWEIKHHEIQGDKAHVDFLLNVNGREHRVRIEIIIVNGRVHQIHFDIN”, 2.23; for “TEEEEILHEELRRHKEALETGDEDRLRHLIDPRARMDVNGREFHGMEHIVHFLVEFLLKFKNVRFEIKDFTKIGEYIYVDIHIIVDGRRHHMTVVALKVDGRWRNRHLHID”, 1.18. For “TEEEEILREAYELFFKMMKTGDEHMKSRLADPNVRLHIGDKENHGMDEVIRVFREEHKRYKNLTLRHWHLEDSHVVNGRIILHYKMNVEVNGVEIETSVHVVIRKINGKWELESLSVE”, the protease stability score turned out to be 0.882. For “TEEEEIVTRALDKFREDLDTGDWKSIKHNFDPDVRLVFENHSTHGRELAVTIAEHIFKRFDYVHDSRNEHIKFQGDKVEWHSHYDGTINGRRMEVRILLIVRKYNGVWIIEEYLIV” the value was 1.47. As for “TEEEEIYERVARLWAEAMLTGDWKTETNLLDPHTRYDYDVDGKHIHLHGREHFKKMLEDLLRHLRFRIRVEEIHVYGEKVEVHGKLDIHVGDKTTHEHTSVQIYVVNGKMKSIRVHSH”, the figure is 1.49; as for “TEEEEKSEHLIRLLLHILTTGDEDTYSWLLDPNAKLTFNGVEFHGREDLRRFWEEHLHRLGVDHRDIKDLKRQGDKVIIHNKIHVNGRTIHQEVEIEVINGKAKFNTVILE”, 0.412.

As for “TEEEEKSWRLAEWFFRIIETGNEHEQKRLADPHVQIHIQIDGRHIHLHGWEELMKELKRLGIKYHKIERLRVIGEKIDEEGRLEINGREHDVRIHILIINGRMNSIHIHIE”, the protease stability score was found to be 1.66.

Sequence “TEEEEKVMEIIEIILHVLKTGDEHLLENLIDPNARSEYGDKELHGREQILRFAWWVSHHIRLKHLHIDSMRVFNGRIEIHGHNIGEINGRESEIHLSLIMIKVDGQWKIHSMRFE” returned a protease stability score of 1.44.

Regarding “TEEEELAHEALRRFTREWVTGDEDLLQNLLDPHTKIEIDGRELHGWHEMVRYYRHLGFDVNEFHLHRFHIQGDKIRVDGELRFHVDGRTHTIRFTIVARKVNGKWLNTHEHYK”, the protease stability score amounted to 0.721.

Turning to “TEEEELAHHLVRLLIELWRTGDEEILRHLADPNVKLIYGDKTDHGREKSHRWMKELLDRYDHVEIIIRREEVQGEKAHSDVELVVNINGVREVYEVHLHFIVVNGKIREERIEVR”, the protease stability score is 0.989. Regarding “TEEEELEEKIARRFLTIWLTGDEERLRELADPNVRLEIDINGVTLEYHGRDELAHMFDHELKKLGFKHLHLESLRVINGVVHSNVRITFNGQERESKIINIVINGRLHTLILRWE”, the protease stability score amounted to 1.41. For “TEEEELLKKFMKDFIQKHVTGDWDSLYKMADPDVKWHINGQQSIGREEVHRMWSEKLKRIDHIEHFHDESIHVIDGRVTLRGRITGNVDGRRYDVEVDFHLFVVDGKLKQFHVHHQ” the value was 0.849.
